Test [1] deals with human recombinant plasminogen activator inhibitor‐1 (stable PAI‐1 variant 14‐1B) (human) (UniProt P05121).
Test [2] shares this target. This is another data set of the same source.
For test [3], the target named is PN‐1 (human) (UniProt P07093).
In test [4] the target is human antithrombin‐III (human) (UniProt P01008).
Test [5] addresses human α2‐antiplasmin (human) (UniProt P08697).
Test [6] addresses recombinant human plasminogen activator inhibitor‐2 (human) (UniProt P05120).
The target in test [7] is human recombinant plasminogen activator inhibitor‐1 (stable PAI‐1 variant 14‐1B) (human) (UniProt P05121). The source holds these as a separate data set.
The target in test [8] is endogenous plasma PAI‐1 (human (endogenous in plasma)) (UniProt P05121).
For test [9], the target named is murine PAI‐1 (murine) (UniProt P22777).
Test [10] has as its target human recombinant plasminogen activator inhibitor‐1 (stable PAI‐1 variant 14‐1B) (human) (UniProt P05121). The test can be described thus: SPR; anti‐PAI‐1 monoclonal antibody (Mab‐1) immobilised on a CM5 Biacore chip, PAI‐1 captured on it, uPA‐S195A variants applied from 25 nM to 48.8 pM; global fit to a 1:1 binding model; repeated three times.
Test [11] shares this target. The source holds these as a separate data set.

For orientation: Kd means the constant that tells how readily two partners part at equilibrium. For orientation: koff means the first-order rate constant of dissociation. What is called kon is the rate constant with which the complex forms.

Consider “PAItrap (uPA‐S195A‐G37bR‐R217L‐C122A‐N145Q) (domain or fragment)”, for which the IC50, chromogenic assay: recovery of uPA activity (S‐2444 hydrolysis) from inhibition by PAI‐1 (15 nM PAI‐1, 15 nM human uPA); blocks PAI‐1 + uPA in test [1] stood at 10 nM. In addition, the IC50 of blocking PAI‐1 inhibition on tPA (Fig. S1); blocks PAI‐1 + tPA in [2] was determined as 14 nM. For the same substance, the IC50, chromogenic assay: recovery of uPA activity (S2444) from inhibition by 15 nM PN‐1, 15 nM uPA, 37°C; blocks PN‐1 + uPA in test [3] is 16000 nM. Besides, the IC50, chromogenic assay: remaining thrombin activity (Gly‐Arg‐p‐nitroanilide) with 30 nM antithrombin‐III and 30 nM human α‐thrombin, 37°C; blocks antithrombin‐III + α‐thrombin in test [4] came out at 40000 nM. Further, the IC50, chromogenic assay: plasmin activity (Gly‐Arg‐p‐nitroanilide) with 15 nM α2‐antiplasmin and 15 nM human plasmin; blocks α2‐antiplasmin + plasmin in [5] was more than 50000 nM. For the same substance, the IC50, chromogenic assay: recovery of uPA activity (S2444) from inhibition by 15 nM PAI‐2, 15 nM uPA, 37°C; blocks PAI‐2 + uPA in test [6] was 14000 nM. In [7], the clot lysis time in human platelet‐poor plasma: 2.4 nM tPA, 0.9 nM PAI‐1, 6.5 nM PAItrap; blocks PAI‐1 + tPA stood at 6 min. Further, in test [8], the time to 50% clot lysis in platelet‐free plasma without exogenous PAI‐1: 100 pM tPA, 20 or 200 nM PAItrap (96 min without PAItrap); blocks PAI‐1 + tPA was 68 min. The substance also gave an IC50, chromogenic assay similar to that used for human PAI‐1; inhibition of murine PAI‐1 in test [9] of 14 nM. Also, in test [10], the Kd is 0.15 nM, the dissociation rate constant (koff) stood at 0.000627 s⁻¹ and the on-rate constant (kon) is 4.11e+06 M⁻¹ s⁻¹.

Turning to “uPA‐SPD S195A‐C122A‐N145Q (domain or fragment)”, the IC50, chromogenic assay: recovery of uPA activity (S‐2444 hydrolysis) from inhibition by PAI‐1 (15 nM PAI‐1, 15 nM human uPA); blocks PAI‐1 + uPA in test [1] worked out at 109 nM. In [11], the clot lysis time in human platelet‐poor plasma: 2.4 nM tPA, 0.9 nM PAI‐1, 6.5 nM uPA‐S195A; blocks PAI‐1 + tPA stood at 39 min. Besides, in test [10], the dissociation constant Kd is 1.57 nM, the off-rate (koff) is 0.00121 s⁻¹ and the kon came to 776000 M⁻¹ s⁻¹.

In the case of “uPA‐SPD S195A‐C122A‐N145Q‐A96E (domain or fragment)”, in [1], the IC50, chromogenic assay: recovery of uPA activity (S‐2444 hydrolysis) from inhibition by PAI‐1 (15 nM PAI‐1, 15 nM human uPA); blocks PAI‐1 + uPA turned out to be 22 nM.

Regarding “uPA‐SPD S195A‐C122A‐N145Q‐G37bR (domain or fragment)”, in [1], the IC50, chromogenic assay: recovery of uPA activity (S‐2444 hydrolysis) from inhibition by PAI‐1 (15 nM PAI‐1, 15 nM human uPA); blocks PAI‐1 + uPA was 25 nM. In addition, in test [10], the Kd is 0.32 nM, the off-rate constant (koff) was 0.000698 s⁻¹ and the kon stood at 2.3e+06 M⁻¹ s⁻¹.

For “uPA‐SPD S195A‐C122A‐N145Q‐G37bR‐R217L‐A96E (domain or fragment)”, the IC50, chromogenic assay: recovery of uPA activity (S‐2444 hydrolysis) from inhibition by PAI‐1 (15 nM PAI‐1, 15 nM human uPA); blocks PAI‐1 + uPA in [1] was 30 nM.

“uPA‐SPD S195A‐C122A‐N145Q‐G37bR‐Y60bK (domain or fragment)”: the IC50, chromogenic assay: recovery of uPA activity (S‐2444 hydrolysis) from inhibition by PAI‐1 (15 nM PAI‐1, 15 nM human uPA); blocks PAI‐1 + uPA in [1] turned out to be 90 nM. Besides, in [10], the Kd came out at 0.83 nM, the dissociation rate constant (koff) was 0.00114 s⁻¹ and the kon was determined as 2.35e+06 M⁻¹ s⁻¹.

Take “uPA‐SPD S195A‐C122A‐N145Q‐G37bR‐Y60bK‐R217L (domain or fragment)”: the IC50, chromogenic assay: recovery of uPA activity (S‐2444 hydrolysis) from inhibition by PAI‐1 (15 nM PAI‐1, 15 nM human uPA); blocks PAI‐1 + uPA in test [1] amounted to 26 nM.

“uPA‐SPD S195A‐C122A‐N145Q‐Q192K (domain or fragment)”: the IC50, chromogenic assay: recovery of uPA activity (S‐2444 hydrolysis) from inhibition by PAI‐1 (15 nM PAI‐1, 15 nM human uPA); blocks PAI‐1 + uPA in test [1] was determined as 3000 nM.

On to “uPA‐SPD S195A‐C122A‐N145Q‐R217L (domain or fragment)”, for which the IC50, chromogenic assay: recovery of uPA activity (S‐2444 hydrolysis) from inhibition by PAI‐1 (15 nM PAI‐1, 15 nM human uPA); blocks PAI‐1 + uPA in test [1] was determined as 48 nM. Further, in test [10], the Kd is 0.63 nM, the koff came to 0.00084 s⁻¹ and the kon is 1.33e+06 M⁻¹ s⁻¹.

With “uPA‐SPD S195A‐C122A‐N145Q‐Y149R (domain or fragment)”, the IC50, chromogenic assay: recovery of uPA activity (S‐2444 hydrolysis) from inhibition by PAI‐1 (15 nM PAI‐1, 15 nM human uPA); blocks PAI‐1 + uPA in test [1] was more than 3000 nM.

Consider “uPA‐SPD S195A‐C122A‐N145Q‐Y151F (domain or fragment)”, for which, in [1], the IC50, chromogenic assay: recovery of uPA activity (S‐2444 hydrolysis) from inhibition by PAI‐1 (15 nM PAI‐1, 15 nM human uPA); blocks PAI‐1 + uPA amounted to 1000 nM.
